Consider one molecule from US20190330347A1 (TAIZHOU HANZHONG BIOPHARMACEUTICS, published 2019).

The target of assay [1] is T1, PD1 on the surface of cell membrane (293T cell line stably transfected with PD1) (UniProt Q15116 25-288, limits assumed).
T1 construct: whole, on cells
Nature of the assay: FACS on 293T cells stably transfected with PD1. How it is done: Step f) Each group was centrifuged at 4000 r/min at a low temperature for 5 minutes, followed by washing with the PBS buffer once and adding 200 μl PBS for suspending, thus obtaining a suspension for on-line detection.

Assay [2] deals with T2, PD-1-hIgGFc antigen (UniProt Q15116 25-167, limits assumed). The assay is described as follows: competitive ELISA on coated PD-1-hIgGFc, competitor PDL2-his tag. How it is done:
A 96-well ELISA plate was coated with PD-1-hIgGFc antigen in a concentration of 1.0 μg/ml (100 μl per well) by incubation at 4° C. overnight.
After the 96-well ELISA plate was washed with the PBST buffer for five times and gently patted to dryness, HRP-conjugated monoclonal mouse anti-his tag as a secondary antibody in 1:750 dilution (50 μl per well) was added for incubation at 37° C. for 1 hour.
For orientation: ELISA stands for enzyme-linked immunosorbent assay.

The next assay concerns the target serum complement C1q (UniProt P02745 23-245; P02746 28-253; P02747 29-245). Nature of the assay: Fortebio Octet BLI, H8L2 on FAB2G sensor, C1q in solution. The text has this:
Serum complement C1q can bind to the Fc fragment of IgG antibody, thus involving in complement-dependent cytotoxicity (CDC). The safety and efficacy of a therapeutic monoclonal antibody will be affected by the binding ability of the monoclonal antibody to the serum complement C1q.
After binding for 120 seconds, the PBST buffer was applied to the FAB2G sensor for disassociation, which was kept for 180 seconds. The data was collected with the Fortebio Data Acquisition 7.0 software and analyzed with the Fortebio Data Analysis 7.0 software.

The target in assay [3] is T1, PD1 on the surface of cell membrane …. The assay is described as follows: FACS competition on 293T-PD1 cells, competitor PDL1-mFc 20 nM.
A further assay addresses T3, FcγRIIIa-Biotin (UniProt P08637 17-208, limits assumed, biotin (site not stated)).
T3 construct: also called CD16a
The assay is described as follows: Fortebio Octet BLI, FcγRIIIa-Biotin on SA sensor. The text has this:
The data was collected with the Fortebio Data Acquisition 7.0 software and analyzed with the Fortebio Data Analysis 7.0 software.
(BLI is a label-free optical method that tracks binding on a fibre tip over time.)

Assay [4] addresses T4, PD-1-his antigen (UniProt Q15116 25-167, limits assumed).
T4 construct: Human is implied, since cynomolgus and rat PD1 are called non-human antigens
Nature of the assay: ELISA on coated PD-1-his. As for the experimental part:
(§1) An ELISA plate was coated with PD-1-his antigen in a concentration of 0.25 μg/ml (100 μl per well) by incubation at 4° C. overnight.
(§2) The ELISA plate coated with the PD-1-his antigen was blocked with 1% BSA in the PBS buffer at 37° C. for 2 hours and washed with 1 xPBST buffer containing 1% Tween-20 for three times, with gently patting to dryness.
(§3) The absorbance of solution in each well was measured with the microplate reader at a wavelength of 450 nm.

The target of assay [5] is T2, PD-1-hIgGFc antigen. The assay is described as follows: competitive ELISA on coated PD-1-hIgGFc, competitor PDL1-mIgG2aFc. As for the experimental part: A 96-well ELISA plate was coated with PD-1-hIgGFc antigen in a concentration of 0.5 μg/ml (50 μl per well) by incubation at 4° C. overnight.
Assay [6] addresses T4, PD-1-his antigen. Nature of the assay: ELISA on coated PD-1-his; antibody at 1:3 dilution of 2 µg/ml. How it is done:
as §1, §2, §3

The target of assay [7] is T5, PD1-hFc of Cynomolgus monkey (Macaca fascicularis) (Cynomolgus monkey (Macaca fascicularis), UniProt B0LAJ3 25-170).
T5 construct: also called PD1 of Cynomolgus monkey
T5 sequence (B0LAJ3 entry or part of it limits assumed, form in doubt): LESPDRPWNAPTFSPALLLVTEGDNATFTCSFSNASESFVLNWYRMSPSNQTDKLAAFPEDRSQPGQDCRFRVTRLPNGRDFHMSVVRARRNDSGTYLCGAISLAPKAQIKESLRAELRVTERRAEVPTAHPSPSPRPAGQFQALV
Nature of the assay: ELISA on coated cynomolgus PD1-hFc.

The EC50 is the concentration giving half of the maximal effect.

T1 sequence (Q15116 25-288 limits assumed): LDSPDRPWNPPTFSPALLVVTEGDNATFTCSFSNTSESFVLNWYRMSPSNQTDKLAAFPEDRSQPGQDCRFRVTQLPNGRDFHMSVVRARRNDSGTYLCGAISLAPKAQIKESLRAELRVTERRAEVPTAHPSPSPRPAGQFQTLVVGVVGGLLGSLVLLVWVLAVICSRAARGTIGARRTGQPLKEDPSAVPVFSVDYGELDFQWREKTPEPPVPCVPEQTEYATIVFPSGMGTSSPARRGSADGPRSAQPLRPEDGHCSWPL
T2 sequence (Q15116 25-167 limits assumed): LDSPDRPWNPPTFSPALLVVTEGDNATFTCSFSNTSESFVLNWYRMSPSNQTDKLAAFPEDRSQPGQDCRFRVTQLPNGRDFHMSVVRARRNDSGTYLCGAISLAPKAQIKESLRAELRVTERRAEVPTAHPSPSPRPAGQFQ
T4 sequence (Q15116 25-167 limits assumed): as above
T3 sequence (P08637 17-208 limits assumed): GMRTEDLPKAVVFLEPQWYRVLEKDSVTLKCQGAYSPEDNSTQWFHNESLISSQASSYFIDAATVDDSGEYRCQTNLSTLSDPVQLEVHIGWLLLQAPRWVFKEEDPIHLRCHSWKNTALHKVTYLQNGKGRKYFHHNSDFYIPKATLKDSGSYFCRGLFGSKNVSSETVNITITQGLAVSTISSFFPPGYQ
Chain of serum complement C1q (P02745 23-245 limits assumed, chain 1 of 3): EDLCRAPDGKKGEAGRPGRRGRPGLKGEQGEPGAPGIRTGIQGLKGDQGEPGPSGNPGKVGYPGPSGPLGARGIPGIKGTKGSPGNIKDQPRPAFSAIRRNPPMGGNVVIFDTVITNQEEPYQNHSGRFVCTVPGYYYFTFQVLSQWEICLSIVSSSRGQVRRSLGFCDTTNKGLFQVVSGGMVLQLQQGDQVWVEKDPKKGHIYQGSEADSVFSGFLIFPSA
Chain of serum complement C1q (P02746 28-253 limits assumed, chain 2 of 3): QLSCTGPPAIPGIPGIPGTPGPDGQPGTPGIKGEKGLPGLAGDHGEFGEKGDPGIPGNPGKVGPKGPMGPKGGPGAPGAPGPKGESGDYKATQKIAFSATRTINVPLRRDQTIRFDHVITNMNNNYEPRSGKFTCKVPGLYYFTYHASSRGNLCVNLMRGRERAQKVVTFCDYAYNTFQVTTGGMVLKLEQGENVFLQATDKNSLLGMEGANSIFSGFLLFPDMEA
Chain of serum complement C1q (P02747 29-245 limits assumed, chain 3 of 3): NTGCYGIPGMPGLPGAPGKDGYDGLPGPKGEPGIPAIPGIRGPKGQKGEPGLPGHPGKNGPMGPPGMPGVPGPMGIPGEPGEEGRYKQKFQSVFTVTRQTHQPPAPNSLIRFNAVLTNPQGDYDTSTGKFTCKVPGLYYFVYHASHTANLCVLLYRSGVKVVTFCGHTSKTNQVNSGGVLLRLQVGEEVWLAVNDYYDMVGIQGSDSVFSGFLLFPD

B1: humanized H8L2 antibody (IgG-like antibody H8L2 against PD-1) (antibody)
heavy: EVQLVQSGGGLVQPGGSLKLSCAASGFTFSSYGMSWVRQAPGKGLDWVATISGGGRDTYYPDSVKGRFTISRDNSKNNLYLQMNSLRAEDTALYYCARQKGEAWFAYWGQGTLVTVSSASTKGPSVFPLAPCSRSTSESTAALGCLVKDYFPEPVTVSWNSGALTSGVHTFPAVLQSSGLYSLSSVVTVPSSSLGTKTYTCNVDHKPSNTKVDKRVESKYGPPCPPCPAPEFLGGPSVFLFPPKPKDTLMITRTPEVTCVVVDVSQEDPEVQFNWYVDGVEVHNAKTKPREEQFNSTYRVVSVLTPLHQDWLNGKEYKCKVSNKGLPSSIEKTISKAKGQPREPQVYTLPPSQEEMTKNQVSLTCLVKGFYPSDIAVEWESNGQPENNYKTTPPVLDSDGSFFLYSRLTVDKSRWQEGNVFSCSVMHEALHAHYTQKSLSLSLGK
light: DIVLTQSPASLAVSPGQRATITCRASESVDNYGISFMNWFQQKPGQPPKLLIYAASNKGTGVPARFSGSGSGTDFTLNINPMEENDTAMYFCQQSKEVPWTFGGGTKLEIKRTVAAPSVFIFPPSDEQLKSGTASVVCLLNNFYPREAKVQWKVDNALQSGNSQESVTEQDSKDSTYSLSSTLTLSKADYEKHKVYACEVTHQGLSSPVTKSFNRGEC
notes: Expressed in 293 cells and purified on protein A; also called 18A10 H8L2
Turning to B1, the EC50 in [1] amounted to 3.4 nM; in the assay with PD-1-hIgGFc antigen [2], 1.83 nM; in assay [3] it was 19.6 nM; with PD-1-his antigen [4], 0.04 nM; with PD-1-hIgGFc antigen [5], 0.474 nM; in [7], 0.219 nM. For the same molecule, the binding result is reported as “no binding (tested: 3.13 to 200 nM)” with serum complement C1q and “no binding (tested: 4000 nM)” with FcγRIIIa-Biotin. Further, the “absorbance at 450 nm” value in the assay with PD-1-his antigen [6] is 1.76.
